According to publication PMC9889658, “The structure of MadC from Clostridium maddingley reveals new insights into class I lanthipeptide cyclases” (Frontiers in Microbiology, 2023):

Legend:
[1] = biological target: prenisin (unmodified) (Lactococcus lactis) (UniProt P13068); conditions: cited from earlier work
[2] = biological target: prenisin (modified) (Lactococcus lactis) (UniProt P13068); conditions: cited from earlier work
[3] = biological target: prenisin (dehydrated) (Lactococcus lactis) (UniProt P13068); conditions: cited from earlier work
Chain of prenisin (dehydrated) (Lactococcus lactis) (P13068 24-57): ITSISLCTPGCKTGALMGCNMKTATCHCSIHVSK

[4] = biological target: MadC ∆34 ∆391 (double mutant carrying both deletions, each with an inserted GAG-linker) (Clostridium sp. maddingley); experiment: SPR
[5] = biological target: NisA leader peptide leader peptide (Lactococcus lactis) (UniProt P13068); experiment: ITC; conditions: cited from earlier work
Chain of NisA leader peptide leader peptide (Lactococcus lactis) (P13068 1-23): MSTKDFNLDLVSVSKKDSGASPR

[6] = biological target: NisA precursor peptide (unmodified) (Lactococcus lactis) (UniProt P13068); experiment: ITC; conditions: cited from earlier work
Chain of NisA precursor peptide (unmodified) (Lactococcus lactis) (P13068 24-57): as the sequence (P13068 24-57) above

[7] = biological target: nisin precursor NisA (unmodified) (Lactococcus lactis) (UniProt P13068); experiment: ITC; conditions: cited from earlier work
Chain of nisin precursor NisA (unmodified) (Lactococcus lactis) (P13068 24-57): as above

[8] = biological target: maddinglicin leader peptide construct madL1, Leader 1 (−23 – −1) (Clostridium sp. maddingley); experiment: ITC; MadC (200–600 μM) in the syringe, 20 injections of 2 μl into the cell with the leader variant (20–60 μM); 25°C; 50 mM HEPES, 500 mM NaCl, pH 7.5; at least triplicate
[9] = biological target: maddinglicin leader peptide construct madL2, Leader 2 (−23 − +5) (Clostridium sp. maddingley); experiment: as above
[10] = biological target: maddinglicin leader peptide construct madL3, Leader 3 (−23 − +10) (Clostridium sp. maddingley); experiment: as above

Chain of NisC (Q03202 whole entry): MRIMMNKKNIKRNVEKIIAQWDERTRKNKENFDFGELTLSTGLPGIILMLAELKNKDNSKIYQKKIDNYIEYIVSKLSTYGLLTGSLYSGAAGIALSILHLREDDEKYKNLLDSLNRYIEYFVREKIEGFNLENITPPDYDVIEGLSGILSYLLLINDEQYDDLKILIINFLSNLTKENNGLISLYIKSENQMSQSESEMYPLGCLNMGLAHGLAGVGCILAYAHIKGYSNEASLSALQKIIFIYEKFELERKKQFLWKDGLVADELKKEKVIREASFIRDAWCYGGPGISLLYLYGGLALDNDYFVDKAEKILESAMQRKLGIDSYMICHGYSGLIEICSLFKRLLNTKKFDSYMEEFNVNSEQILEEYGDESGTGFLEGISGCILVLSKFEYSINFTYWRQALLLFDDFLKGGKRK
Chain of NisB (P20103 whole entry): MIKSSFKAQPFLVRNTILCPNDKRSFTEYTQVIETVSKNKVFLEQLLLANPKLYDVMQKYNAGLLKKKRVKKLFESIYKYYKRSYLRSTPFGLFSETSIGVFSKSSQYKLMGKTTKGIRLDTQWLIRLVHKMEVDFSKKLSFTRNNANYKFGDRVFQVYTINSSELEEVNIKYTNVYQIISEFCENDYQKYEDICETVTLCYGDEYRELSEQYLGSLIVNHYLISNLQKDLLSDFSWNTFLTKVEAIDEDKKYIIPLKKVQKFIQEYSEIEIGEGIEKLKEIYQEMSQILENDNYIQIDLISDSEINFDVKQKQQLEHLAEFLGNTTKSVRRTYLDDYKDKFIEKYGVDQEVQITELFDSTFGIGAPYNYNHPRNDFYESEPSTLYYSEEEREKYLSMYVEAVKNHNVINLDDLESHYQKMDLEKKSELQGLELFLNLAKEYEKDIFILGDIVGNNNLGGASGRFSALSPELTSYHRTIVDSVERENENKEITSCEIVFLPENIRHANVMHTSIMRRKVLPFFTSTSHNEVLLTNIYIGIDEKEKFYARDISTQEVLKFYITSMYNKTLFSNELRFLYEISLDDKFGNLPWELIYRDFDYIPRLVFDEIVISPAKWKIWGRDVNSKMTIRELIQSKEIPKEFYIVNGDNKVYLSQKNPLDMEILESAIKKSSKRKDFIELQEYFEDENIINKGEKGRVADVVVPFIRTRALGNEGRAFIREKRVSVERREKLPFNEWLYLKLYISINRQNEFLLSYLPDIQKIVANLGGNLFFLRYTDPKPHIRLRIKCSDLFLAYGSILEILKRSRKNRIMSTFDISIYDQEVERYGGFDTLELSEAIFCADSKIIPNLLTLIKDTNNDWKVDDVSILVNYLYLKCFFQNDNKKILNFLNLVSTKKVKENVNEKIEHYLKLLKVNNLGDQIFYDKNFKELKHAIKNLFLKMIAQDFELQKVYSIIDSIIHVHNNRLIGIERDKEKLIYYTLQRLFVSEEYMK
Chain of prenisin (modified) (Lactococcus lactis) (P13068 24-57): as the sequence (P13068 24-57) above
Chain of prenisin (unmodified) (Lactococcus lactis) (P13068 24-57): as above

Substance: NisB (from UniProt P20103)
- Kd [1]: 1000 nM
- Kd [2]: 10500 nM
- Kd [3]: 300 nM

Substance: maddinglicin leader peptide construct madL3, Leader 3 (−23 − +10)
- Kd [4]: 35000 nM

Substance: NisC (from UniProt Q03202)
- Kd [5]: 3800 nM
- Kd [6]: 2400 nM
- Kd [7]: 2000 nM

Substance: MadC (lanthionine cyclase of Clostridium sp. maddingley), His6-tag cleaved off (enzyme)
- dH [8]: -8.76 kcal/mol
- stoichiometry N [8]: 0.83
- dH [9]: -6.02 kcal/mol
- stoichiometry N [9]: 0.99
- dH [10]: -7.3 kcal/mol
- stoichiometry N [10]: 0.99
